# Paper PMC8294330, “A cooperative PNPase-Hfq-RNA carrier complex facilitates bacterial riboregulation” (Molecular Cell, 2021)
# Biological target: the molecule itself
# Assay: cryo-EM structure; apo PNPase and PNPase with 3'ETSleuZ RNA; 8-12 uM in 20 mM Tris-HCl pH 8, 2.5 mM MgCl2, 150 mM KCl, 1 mM TCEP, 8 mM CHAPSO added before blotting
protein,measurement,value
"Escherichia coli polynucleotide phosphorylase (PNPase), wild type (enzyme, UniProt P05055 1-711, looked up, polynucleotide phosphorylase (PNPase), Escherichia coli, full-length enzyme with RNase PH core, KH and S1 domains; Preparation follows Bandyra et al., 2016; no tag is named for the purified protein; also called wild-type PNPase; PNPase WT) MLNPIVRKFQYGQHTVTLETGMMARQATAAVMVSMDDTAVFVTVVGQKKAKPGQDFFPLTVNYQERTYAAGRIPGSFFRREGRPSEGETLIARLIDRPIRPLFPEGFVNEVQVIATVVSVNPQVNPDIVAMIGASAALSLSGIPFNGPIGAARVGYINDQYVLNPTQDELKESKLDLVVAGTEAAVLMVESEAQLLSEDQMLGAVVFGHEQQQVVIQNINELVKEAGKPRWDWQPEPVNEALNARVAALAEARLSDAYRITDKQERYAQVDVIKSETIATLLAEDETLDENELGEILHAIEKNVVRSRVLAGEPRIDGREKDMIRGLDVRTGVLPRTHGSALFTRGETQALVTATLGTARDAQVLDELMGERTDTFLFHYNFPPYSVGETGMVGSPKRREIGHGRLAKRGVLAVMPDMDKFPYTVRVVSEITESNGSSSMASVCGASLALMDAGVPIKAAVAGIAMGLVKEGDNYVVLSDILGDEDHLGDMDFKVAGSRDGISALQMDIKIEGITKEIMQVALNQAKGARLHILGVMEQAINAPRGDISEFAPRIHTIKINPDKIKDVIGKGGSVIRALTEETGTTIEIEDDGTVKIAATDGEKAKHAIRRIEEITAEIEVGRVYTGKVTRIVDFGAFVAIGGGKEGLVHISQIADKRVEKVTDYLQMGQEVPVKVLEVDRQGRIRLSIKEATEQSQPAAAPEAPAAEQGE",stoichiometry N,3
